Values of other authors, collected in publication PMC1297595.

Target: CD26 (Homo sapiens) (UniProt P27487)
Chain of UniProt P27487 (P27487 39-766): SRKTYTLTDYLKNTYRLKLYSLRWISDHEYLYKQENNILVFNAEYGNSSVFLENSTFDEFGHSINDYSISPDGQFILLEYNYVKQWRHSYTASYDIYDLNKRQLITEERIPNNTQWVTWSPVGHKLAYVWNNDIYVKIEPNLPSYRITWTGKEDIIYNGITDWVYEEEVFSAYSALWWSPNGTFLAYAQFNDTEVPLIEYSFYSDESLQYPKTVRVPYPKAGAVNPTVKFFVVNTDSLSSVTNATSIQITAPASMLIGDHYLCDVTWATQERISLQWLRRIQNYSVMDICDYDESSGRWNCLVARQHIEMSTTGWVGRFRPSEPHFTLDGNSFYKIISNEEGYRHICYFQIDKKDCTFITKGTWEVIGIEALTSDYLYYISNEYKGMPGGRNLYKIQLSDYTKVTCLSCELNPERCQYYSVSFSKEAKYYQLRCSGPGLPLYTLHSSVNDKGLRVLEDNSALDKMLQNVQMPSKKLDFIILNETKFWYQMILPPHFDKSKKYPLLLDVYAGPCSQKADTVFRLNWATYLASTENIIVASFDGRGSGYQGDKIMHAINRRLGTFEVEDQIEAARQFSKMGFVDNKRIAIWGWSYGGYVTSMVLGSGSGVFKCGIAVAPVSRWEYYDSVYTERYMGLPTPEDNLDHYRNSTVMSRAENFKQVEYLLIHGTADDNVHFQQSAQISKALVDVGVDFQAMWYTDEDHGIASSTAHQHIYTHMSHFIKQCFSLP

Kd: 65 nM
Substance: ADA (from UniProt P00813)
